Source: patent US20140274782A1, “AFFINITY REAGENTS AND METHODS FOR DETECTION, PURIFICATION, AND PROTEOMIC ANALYSIS OF METHYLATED PROTEINS” (The Board of Trustees of the Leland Stanford Junior …, priority 2013, published 2014)

Legend:
G9a and GLP = target: T1, G9a and GLP (Homo sapiens, UniProt Q96KQ7+Q9H9B1); test: Triple SILAC pull-down after UNC0638 treatment of 293T cells, DMSO/UNC0638 ratio of protein captured by 3×MBT; assay type: cell-based; conditions: for Relative to UNC0638 UNC Heavy: UNC0638 in heavy SILAC media; for Relative to UNC0638 UNC Light: UNC0638 in light SILAC media; for Relative to UNC0638 Average: average of UNC Light and UNC Heavy experiments;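 for all read-outs here: mass spectrometry (Q-Exactive) SILAC quantitation, DMSO/UNC0638 ratio computed after subtracting 3×MBTD355N mutant pull-down background, only proteins with at least twofold 3×MBT over mutant signal considered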
T1 construct: endogenous in cells; host or cells: HEK 293T
T1 sequence (Q96KQ7 2-1210 limits assumed): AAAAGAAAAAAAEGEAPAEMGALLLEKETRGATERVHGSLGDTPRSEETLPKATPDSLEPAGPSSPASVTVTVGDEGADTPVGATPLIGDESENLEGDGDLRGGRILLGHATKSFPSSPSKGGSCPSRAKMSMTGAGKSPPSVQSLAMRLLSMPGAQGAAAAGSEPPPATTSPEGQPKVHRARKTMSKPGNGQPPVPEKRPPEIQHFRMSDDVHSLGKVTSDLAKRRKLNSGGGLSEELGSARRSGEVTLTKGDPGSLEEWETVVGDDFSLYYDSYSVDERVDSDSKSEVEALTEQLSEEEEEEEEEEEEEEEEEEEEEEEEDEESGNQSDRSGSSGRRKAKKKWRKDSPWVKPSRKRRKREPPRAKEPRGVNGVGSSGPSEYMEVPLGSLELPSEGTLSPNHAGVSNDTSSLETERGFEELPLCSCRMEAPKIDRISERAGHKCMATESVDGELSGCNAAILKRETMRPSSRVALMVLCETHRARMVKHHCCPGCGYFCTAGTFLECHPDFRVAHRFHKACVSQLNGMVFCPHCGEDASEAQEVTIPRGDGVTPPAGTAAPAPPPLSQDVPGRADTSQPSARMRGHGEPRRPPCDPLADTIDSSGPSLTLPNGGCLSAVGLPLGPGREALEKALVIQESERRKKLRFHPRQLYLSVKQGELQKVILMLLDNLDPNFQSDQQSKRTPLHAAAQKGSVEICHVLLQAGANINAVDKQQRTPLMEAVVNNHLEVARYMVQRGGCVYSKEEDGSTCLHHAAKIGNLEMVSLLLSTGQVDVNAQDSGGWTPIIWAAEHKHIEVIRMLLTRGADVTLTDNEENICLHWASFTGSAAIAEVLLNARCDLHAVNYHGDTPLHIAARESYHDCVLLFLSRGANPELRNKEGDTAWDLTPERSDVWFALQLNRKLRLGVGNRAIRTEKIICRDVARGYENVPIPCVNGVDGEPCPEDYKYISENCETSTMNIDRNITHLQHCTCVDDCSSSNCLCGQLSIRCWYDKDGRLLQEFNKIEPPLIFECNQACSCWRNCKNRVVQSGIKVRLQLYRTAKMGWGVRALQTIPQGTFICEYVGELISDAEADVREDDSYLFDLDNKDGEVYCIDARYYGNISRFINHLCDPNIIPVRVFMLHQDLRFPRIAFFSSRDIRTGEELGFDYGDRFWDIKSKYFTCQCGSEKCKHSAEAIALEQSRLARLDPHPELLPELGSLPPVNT
T1 sequence (Q9H9B1 2-1298 limits assumed): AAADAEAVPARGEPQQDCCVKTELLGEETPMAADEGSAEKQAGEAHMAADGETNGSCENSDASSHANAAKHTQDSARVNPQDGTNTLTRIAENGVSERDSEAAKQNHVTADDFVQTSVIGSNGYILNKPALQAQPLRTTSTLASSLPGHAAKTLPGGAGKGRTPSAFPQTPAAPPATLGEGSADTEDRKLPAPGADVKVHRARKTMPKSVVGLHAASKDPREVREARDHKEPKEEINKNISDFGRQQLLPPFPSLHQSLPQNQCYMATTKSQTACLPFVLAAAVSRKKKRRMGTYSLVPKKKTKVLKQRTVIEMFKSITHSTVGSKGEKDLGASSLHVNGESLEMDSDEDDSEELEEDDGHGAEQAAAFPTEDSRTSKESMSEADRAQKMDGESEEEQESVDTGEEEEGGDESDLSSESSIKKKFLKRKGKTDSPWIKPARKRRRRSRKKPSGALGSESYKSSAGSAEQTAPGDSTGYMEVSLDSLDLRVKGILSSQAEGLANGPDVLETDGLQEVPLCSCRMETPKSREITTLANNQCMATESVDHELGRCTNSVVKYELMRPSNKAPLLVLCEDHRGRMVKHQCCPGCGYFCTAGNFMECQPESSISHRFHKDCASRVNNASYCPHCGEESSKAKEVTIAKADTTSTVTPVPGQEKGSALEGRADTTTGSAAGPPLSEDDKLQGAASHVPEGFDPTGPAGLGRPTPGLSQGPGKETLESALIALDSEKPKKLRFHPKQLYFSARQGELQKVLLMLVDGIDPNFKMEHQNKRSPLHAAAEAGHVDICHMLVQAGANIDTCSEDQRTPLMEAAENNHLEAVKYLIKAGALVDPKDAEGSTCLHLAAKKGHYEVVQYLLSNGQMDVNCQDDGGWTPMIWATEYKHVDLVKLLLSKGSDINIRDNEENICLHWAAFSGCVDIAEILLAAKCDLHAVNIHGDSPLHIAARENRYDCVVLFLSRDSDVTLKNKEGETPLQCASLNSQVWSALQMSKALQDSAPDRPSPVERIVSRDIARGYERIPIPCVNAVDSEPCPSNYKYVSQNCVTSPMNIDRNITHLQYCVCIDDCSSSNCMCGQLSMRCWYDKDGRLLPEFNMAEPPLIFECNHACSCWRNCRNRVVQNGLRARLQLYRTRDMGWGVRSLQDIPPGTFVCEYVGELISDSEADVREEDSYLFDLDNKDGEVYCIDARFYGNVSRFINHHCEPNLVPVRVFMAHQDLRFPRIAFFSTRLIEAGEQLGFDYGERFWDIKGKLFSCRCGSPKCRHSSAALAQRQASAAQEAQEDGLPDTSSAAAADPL

3×MBT domain of L3MBTL1 = test: Triple SILAC pull-down, 3xMBT/3xMBTD355N ratio (cytoplasmic, nuclear and chromatin fractions of 293T cells); assay type: binding, human; conditions: for 3xMBT/D355N UNC Heavy: experiment with UNC0638 in heavy SILAC media; for 3xMBT/D355N UNC Light: experiment with UNC0638 in light SILAC media;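 for all read-outs here: proteins quantified with MaxQuant, requiring at least two unique peptides and quantification in both label directions, normalized to the mean of proteins from a digested loading control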
[1] = SILAC ratio DMSO relative to UNC0638, pull-down with 3xMBT, all values in log base 2
[2] = SILAC ratio 3xMBT vs 3xMBTD355N pull-down, 293T cells, all values in log base 2
[3] = SILAC ratio DMSO/UNC0638 of protein pulled down with 3xMBT
[4] = SILAC ratio, pull-down 3xMBT vs 3xMBTD355N

Row | Substance | Relative to UNC0638 UNC Heavy (G9a and GLP; [1]) [log base 2] | Relative to UNC0638 UNC Light (G9a and GLP; [1]) [log base 2] | Relative to UNC0638 Average (G9a and GLP; all values in log base 2) [log base 2] | 3xMBT/D355N UNC Heavy (3×MBT domain of L3MBTL1; [2]) [log base 2] | 3xMBT/D355N UNC Light (3×MBT domain of L3MBTL1; [2]) [log base 2] | Relative to UNC0638 UNC Heavy (G9a and GLP; [3]) [log base 2] | Relative to UNC0638 UNC Light (G9a and GLP; [3]) [log base 2] | Relative to UNC0638 Average (G9a and GLP) [log base 2] | 3xMBT/D355N UNC Heavy (3×MBT domain of L3MBTL1; [4]) [log base 2] | 3xMBT/D355N UNC Light (3×MBT domain of L3MBTL1; [4]) [log base 2] | Candidate G9a/GLP target (G9a and GLP; reduced association with 3xMBT after UNC0638 treatment)
1 | METTL3 | 0.04 | −1.45 | −0.70 | 3.18 | −0.51 |  |  |  |  |  | 
2 | MK167 |  |  |  |  |  | 0.61 | −0.25 | 0.18 | 2.59 | 2.26 | 
3 | MLLT4 | 0.16 | 0.04 | 0.10 | 3.31 | 2.39 |  |  |  |  |  | 
4 | MPG |  |  |  |  |  | 0.52 | −0.04 | 0.24 | 1.39 | 1.87 | 
5 | NBN | −0.14 | −0.46 | −0.30 | 1.68 | 1.52 |  |  |  |  |  | 
6 | NONO |  |  |  |  |  | 0.17 | 0.16 | 0.17 | 3.18 | 3.75 | 
7 | NPM1 |  |  |  |  |  | 0.24 | 0.11 | 0.17 | 1.24 | 1.27 | 
8 | NSUN2 |  |  |  |  |  | 4.51 | 0.18 | 2.35 | 0.25 | 2.00 | √✓
9 | NUDT21 |  |  |  |  |  | 0.20 | 0.04 | 0.12 | 3.65 | 3.15 | 
10 | NUMA1 |  |  |  |  |  | 0.90 | −0.32 | 0.29 | 0.83 | 3.33 | 
11 | PABPC1 |  |  |  |  |  | 0.04 | 0.26 | 0.15 | 2.91 | 3.44 | 
